Values of other authors in paper PMC12073169.

Target: ATG3 (Homo sapiens) (UniProt Q9NT62)
Chain of UniProt Q9NT62 (Q9NT62 whole entry): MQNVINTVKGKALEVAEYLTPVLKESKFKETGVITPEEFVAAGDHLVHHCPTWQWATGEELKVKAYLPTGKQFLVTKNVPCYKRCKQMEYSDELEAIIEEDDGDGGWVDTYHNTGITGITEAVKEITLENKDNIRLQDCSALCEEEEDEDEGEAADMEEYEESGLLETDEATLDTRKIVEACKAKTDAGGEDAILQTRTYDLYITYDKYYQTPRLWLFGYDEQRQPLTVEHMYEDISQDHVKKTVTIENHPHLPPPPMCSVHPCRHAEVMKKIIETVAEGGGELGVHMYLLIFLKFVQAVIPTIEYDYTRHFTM

ATG7 (from UniProt O95352)
Kd: 0.35 µM
